Measurements reported in patent publication US20190083619A1, “METHODS AND COMPOSITIONS FOR REMOVING, REDUCING, DISPERSING, DISRUPTING OR ERADICATING BIOFILMS AND DETERMINING THE NUMBER OF BACTERIAL POPULATION IN BIOFILM OR A CULTURE CONTAINING BACTERIAL AGGREGATE” (INSTITUTE OF MICROBIOLOGY, CHINESE ACADEMY OF SCIENCES, priority 2017, published 2019).

Columns and labels:
[1] = tested on: psl transcription in PAO1; test: psl transcription detected by psl::gfp reporter plasmid; type: cell-based, P. aeruginosa; settings: 5 μM C12-HSL added to PAO1 culture; FIG. 3E
Psl production in PAO1 = test: Psl production by anti-Psl immunodot blotting; type: cell-based, P. aeruginosa; settings: 5 μM C12-HSL added to culture medium; FIG. 3D
Method: To examine Psl production, exopolysaccharide Psl extracts were collected from overnight cultures equivalent to approximately 10 OD600 and examined by immunodot blotting using an anti-Psi antibody. For the effect of C12-HSL on Psl production, 5 μM C12-HSL was added to the medium after inoculation. The software Image Lab™ was used to quantify the immunodot blotting data.
LasI directs the synthesis of the QS signal molecular, N-(3-oxododecanoyl)-L-homoserine lactone (C12-HSL). Thus, whether C12-HSL supplement could affect Psl production in PAO1 was examined. […] C12-HSL is usually associated with the transcriptional regulator LasR to active their target genes.

ΔpaaP strain = test: MIC by E test strips; type: cell-based, P. aeruginosa; settings: E test strip, 37° C. overnight; FIG. 9A
Method: The MIC (minimum inhibition concentration) of ΔpaaP strain to tobramycin and ciprofloxacin, two antibiotics commonly used to treat P. aeruginosa infections, was tested by E test strips. Overnight culture was diluted to OD600˜0.1, and spread on the plate. The E test strip was put onto the plate, cultivated at 37° C. overnight, and the minimum inhibition concentration was recorded according to the E test strip.

[2] = target: T1, (2S,3R)-3-Amino-2-hydroxy-5-methylhexanoyl-Val-Val-Asp (Amastatin)
T1 chain: VVD

[3] = In vitro treatment of Psl extract, elution profile on Sephadex G-50 column; type: biochemical, P. aeruginosa; settings: exogenous-supplied PslG in vitro; FIG. 8B
Method: The Psl extract from biofilm was prepared, fractionated on a Sephadex G-50 column, and irrigated with water at 0.67 ml/min. The total carbohydrate in each fraction (5 ml) was assayed colorimetrically for aldose. Briefly, 200 μl of each fraction was mixed with 100 μl 5% phenol and 500 μl concentrated sulfuric acid, reacted at room temperature for 30 minutes, and measured (OD492).
To confirm, the Psl extracted from PAO1 biofilms was treated with exogenous-supplied PslG in vitro.

MJK8 = test: Dispersal of bacterial aggregates in liquid culture, OD600 read; type: cell-based, P. aeruginosa; settings: 100 nM PslG, Jensen's or LBNS medium, 3 h and 6 h; FIG. 13A, 13B
Method: (§1) PAO1-derived rugose small colony variant (RSCV) strain MJK8 was grown in LBNS at 37° C. 200 rpm overnight. This overnight culture was washed and then inoculated into Jensen's medium or in LBNS medium at 1:50 with or without 100 nM of PslG. Bacterial growth was determined by taking OD600 read at 3 h and 6 h post inoculation. P. stutzeri strain A1501 was firstly grown in LD medium at 30° C. 200 rpm overnight. The overnight culture was washed and inoculated into KLG^+ medium at 1:50 with or without 100 nM of PslG. OD600 was taken at 3 h, 6 h and 30 h post inoculation to monitor the bacterial growth. FIGS. 13A-13C show the comparison of OD600 read with or without PslG treatment of: MJK8 growth in chemically defined Jensen's medium (FIG. 13A); MJK8 growth in LBNS rich medium (FIG. 13B); A1501 growth in KLG^+ medium (FIG. 13C).

A1501 = test: as above; type: cell-based, P. stutzeri; settings: 100 nM PslG, KLG+ medium, 3 h, 6 h, 30 h; FIG. 13C
Method: as §1

PAO1 biofilms = test: Dispersal of air-liquid interface biofilms and live cell counting by CFU; type: cell-based, P. aeruginosa; settings: 50 nM PslG, 30° C., 1 h, versus tissue homogenate and control; FIG. 14
Method: The PAO1 strain was inoculated on LBNS solid medium plates and overnight incubated at 37° C. Then monoclones of the PAO1, collected from the LBNS solid medium plates, were inoculated in LBNS liquid medium and incubated at 37° C. overnight with shaking at 200 rpm. The culture was washed with PBS for once. Then the culture was inoculated in Jensen's liquid medium at 1:100 (V:V), and incubated at 30° C. in a 24-pore plate. Biofilms were formed at the air-liquid interface. The liquid under the biofilms was removed by a pipettor. The biofilms were washed with PBS for twice so as to remove free bacterial cells that are not embedded in the biofilms. The biofilms were added in PBS for subsequent treatment. For a tissue homogenate treatment group, a sterile glass homogenizer (1 mL) was used to homogenize the biofilms for three times. For PslG treatment group, PslG was added to the biofilms, and the final concentration of PslG is 50 nM. The biofilms were incubated at 30° C. for 1 h. For a control group, no treatment was performed on the biofilms at this stage. Afterwards, the biofilm samples from the tissue homogenate treatment group, the PslG treatment group, and the control group were homogenized using a pipette and then votexed. The biofilm samples were diluted in PBS at 1:10. […] The numbers of live cells in the biofilm samples was determined based on the CFUs.

CCCCCCCCCC(=O)CC(=O)N[C@H]1CCOC1=O [C12-HSL, N-(3-oxododecanoyl)-L-homoserine lactone]
effect on psl transcription [1]: psl transcription was enhanced
effect on Psl production (Psl production in PAO1): did increase Psl production in PAO1

O=C(O)c1cn(C2CC2)c2cc(N3CCNCC3)c(F)cc2c1=O [ciprofloxacin]
MIC of ΔpaaP, fold lower than PAO1 (ΔpaaP strain): 8 fold

B1: P. aeruginosa aminopeptidase (PaAP) (protein)
chain: APSEAQQFTEFWTPGKPNPSICKSPLLVSTPLGLPRCLQASNVVKRLQKLEDIASLNDGNRAAATPGYQASVDYVKQTLQKAGYKVSVQPFPFTAYYPKGPGSLSATVPQPVTYEWEKDFTYLSQTEAGDVTAKVVPVDLSLGAGNTSTSGCEAEDFANFPAGSIALIQRGTCNFEQKAENAAAAGAAGVIIFNQGNTDDRKGLENVTVGESYEGGIPVIFATYDNGVAWSQTPDLQLHLVVDVVRKKTETYNVVAETRRGNPNNVVMVGAHLDSVFEGPGINDNGSGSAAQLEMAVLLAKALPVNKVRFAWWGAEEAGLVGSTHYVQNLAPEEKKKIKAYLNFDMIGSPNFGNFIYDGDGSDFGLQGPPGSAAIERLFEAYFRLRGQQSEGTEIDFRSDYAEFFNSGIAFGGLFTGAEGLKTEEQAQKYGGTAGKAYDECYHSKCDGIANINQDALEIHSDAMAFVTSWLSLSTKVVDDEIAAAGQKAQSRSLQMQKSASQIERWGHDFIK
PaAP catalytic activity (hydrolysis of Leu-p-nitroanilide, 7 nM PaAP with 10, 20, 30 µM Amastatin or without) [2]: the Amastatin may inhibit the enzyme activity of PaAP at micromolar concentrations, and the inhibition effect may increase with higher concentration of Amastatin

B2: PslG: glycosyl hydrolase of P. aeruginosa that degrades the Psl exopolysaccharide matrix; amino acid sequence SEQ ID NO: 6 (protein)
chain: EIQVLKAPRAVVWKDFLGVNAQFLWFSPERYNKQIDRLQDLGLEWVRLDLHWDRLETAEDQYQLASLDQLVKDLEARQLKSVFYLVGSARFITTAPFYSPFQDQYPPRDPEVFARRMAMLSQRYPSVAAWQVWNEPNLIGFWRPKADPEGYAKLLQASTIALRMVDPEKPVVSAGMAFFSEMPDGRTMFDALGHLGVESLGTIATYHPYTQLPEGNYPWNLDFVSHANQINRALRNAGVPAIWSTEWGWSAYKGPKELQDIIGVEGQADYVLRRLALMSALDYDRIFLFTLSDLDQRASVRDRDYGLLDLDANPKPVYLALQRFLKVTGPKLRPADPPVTEDLPDGSFSIGWTREDGRNVWLFWSARGGNVRLPKLKEATLHDPLSGKVTPLSGSDGLEVPVKSSLQMLVWE
elution profile of PslG-degraded Psl [3]: showed a very similar profile as Psl extracted from the ΔpaaP biofilm
dispersal of flocs in liquid culture (MJK8): can disperse the flocs of MJK8 and A1501 in liquid culture
dispersal of flocs in liquid culture (A1501): can disperse the flocs of MJK8 and A1501 in liquid culture
number of detected CFUs for treated biofilms (PAO1 biofilms): significantly greater than the number of detected CFUs for the biofilms treated by tissue homogenate, and the biofilms in the control group
